Results published in US10098962B2, “Glycosaminoglycan derivative and method for producing same” (Seikagaku Corporation, priority 2013, dated 2018).
Like-named read-outs stand apart in the source and are kept apart here.

What was measured:
[1] = Release test for conjugates obtained from Examples 22 to 25 (Test Example A6); format: physicochemical; details: 0.1% in 20 mM sodium phosphate buffer pH 7.0, 36°C
From the text: (§1) The amount of the dissociated diclofenac component which is present in an initial state (storage: Day 0) immediately after the dissolution, and the amount of diclofenac ester which has been forced to dissociate by using a base were subjected to quantitative analysis based on ODS-HPLC. […] From the ratio between the obtained amount of the dissociated diclofenac component at each time point and the amount of dissociated diclofenac component resulting from forced dissociation, the dissociation ratio (%) was calculated. For a pre-treatment of a HPLC sample, OASIS HLB was used, and a fraction eluted by acetonitrile was analyzed. HPLC conditions are as follows. column: […] flow rate: 1 mL/min temperature: 35° C.

[2] = Release test for conjugates obtained from Examples 18 to 21 (Test Example A5); format: physicochemical; details: 0.1% in 20 mM sodium phosphate buffer pH 7.0, 36°C
From the text: The amount of the dissociated diclofenac component which is present in an initial state (storage: Day 0) immediately after the dissolution, and the amount of diclofenac ester which has been forced to dissociate by using a base were subjected to quantitative analysis based on ODS-HPLC. […] From the ratio between the obtained amount of the dissociated diclofenac component at each time point and the amount of dissociated diclofenac component resulting from forced dissociation, the dissociation ratio (%) was calculated. For a pre-treatment of a HPLC sample, OASIS HLB was used, and a fraction eluted by acetonitrile was analyzed. HPLC conditions are as follows. column: […] temperature: 35° C.

[3] = Release test for conjugates obtained from Examples 26 to 28, citrate buffer pH 5.1 (Test Example A7); format: physicochemical
Experimental: The amount of the dissociated diclofenac component which is present in a solution in an initial state (storage: Day 0) immediately after the dissolution was subjected to quantitative analysis based on ODS-HPLC. […] Meanwhile, the method for pre-treatment of HPLC sample is described below. Methanol (1 mL) was added to the stored solution (1 g). After dilution and addition of acetonitrile to 20 mL, the hyaluronic acid component was allowed to precipitate. The obtained supernatant was used as a HPLC sample. HPLC conditions are as follows. column: […] flow rate: 1 mL/min temperature: 35° C.

[4] = rat, in vivo, inhaled or intranasal
Experimental: As a system for test, BN/CrlCrlj rat (Charles River Laboratories International, Inc., 5-week old) was used.
For administration of each test substance, the test system was fixed dorsally under general anesthesia, and by using a sonde for intratracheal administration (MicroSprayer® Aerosolizer Model IA-1B, manufactured by Penn-Century), intratracheal administration was performed with volume of 100 μL. As general anesthesia, inhalation of isoflurane (Forane (registered trade mark), Dainippon Pharmaceutical Co., Ltd., concentration of 3.0%, flow rate of 2.0 L/min) filled in a small animal anesthetizer (TK-4, manufactured by BioMachinery Co., Ltd.) was used.
At Hour 4, 24, 48, 72 and 168 after administration of a test substance, the pulmonary tissue was collected by using scissors and forceps under pentobarbital anesthesia. Meanwhile, three samples were taken for each evaluation time point. […]
Each parameter of drug kinetics was calculated from a change in average content in pulmonary tissue. If there was an animal showing the measurement value of less than lower limit of quantification (<10 ng/g), the average content in pulmonary tissue was calculated by having the value of 0 (zero) for it. The time t (hr) for calculating AUC0-t was the final time point at which the quantification can be made. […]

[5] = tested on: rat model of muscle pain disorder caused by carrageenan
Experimental: (§2) As an inflammatory agent, 10 mg/mL carrageenan solution was used. As general anesthesia, inhalation of isoflurane (concentration of 3.0%, flow rate of 2.0 L/min) filled in a small animal anesthetizer (TK-4, manufactured by BioMachinery Co., Ltd.) was used.
(§3) A rat (Crj: SD line (SPF), male, 8-week old) was fixed dorsally under general anesthesia, and a broad region around the left gastrocnemius muscle was shaved using a shaver. The area for injection was sprayed with 70% alcohol for sterilization, and by using an injection tube applied with needle for subcutaneous insulin administration (MYJECTOR (registered trade mark), TERUMO CORPORATION), each test solution was injected (volume of 100 μL/site) for intramuscular administration into the left medial gastrocnemius muscle of a rat.
(§4) 10 Days after administering the test substance, each group was administered with 10 mg/mL carrageenan solution. As for the administration method, like the test substance, under inhalation of isoflurane, the region around the gastrocnemius muscle was sprayed with 70% alcohol for sterilization, and by using an injection tube applied with 29 G needle for subcutaneous insulin administration, it was injected (volume of 100 μL/site) for intramuscular administration into the left gastrocnemius muscle of a rat. […]

[6] = Release test for conjugates obtained from Examples 26 and 32 at 60, 40, 25°C (Test Example A9); format: physicochemical
Experimental: The amount of the dissociated diclofenac component which is present in a solution in an initial state (storage: Day 0) immediately after the dissolution was subjected to quantitative analysis based on ODS-HPLC. Other aliquot was stored at 60° C., 40° C., or 25° C. immediately after the dissolution, the decomposition amount of diclofenac ester was similarly subjected to quantitative analysis after lapse of the each designated time. From the ratio between the obtained amount of the dissociated diclofenac component at each time point and the amount of dissociated diclofenac component resulting from forced dissociation, the dissociation ratio (%) was calculated. For a pre-treatment of a HPLC sample, OASIS HLB was used, and a fraction eluted by acetonitrile was analyzed. HPLC conditions are as follows. column: […] flow rate: 1 mL/min temperature: 35° C.

[7] = tested on: rat model of muscle pain disorder caused by silver nitrate; experiment: Effect of diclofenac coupled hyaluronic acids in rat model of muscle pain induced by silver nitrate (Test Example B5); format: in vivo; details: for duration of analgesic effect: 1% (w/v), intramuscular, observed for 3 days; for pain score vs control group / muscle pressure pain threshold value vs control group: i.m. 100 μL/site, 1% (w/v) in citric acid buffer, 24, 48, 72 h after administration; for pain score vs control group: FIG. 7; for muscle pressure pain threshold value vs control group: FIG. 8
Experimental: As an inflammatory agent, 0.1 mol/L silver nitrate solution was filtered through a 0.22 μm filter and used. […] Accordingly, a rat model of muscle pain disorder caused by silver nitrate was prepared. […] At Hour 24 after the administration of 0.1 mol/L silver nitrate solution, the rats were divided into 3 groups, and each group was administered with either the test substance or citric acid buffer solution. […] Furthermore, ** and * represent, in the parametric Tukey test, **p<0.01 and *p<0.05 (vs Control), respectively. […] The length of move of the weight at which a pain-related behavior like avoidance is shown was read to one decimal place. This operation was repeated three times in total, and the median value was taken as the muscle pressure pain threshold value. […] Furthermore, *** represents, in the parametric Tukey test, ***p<0.001 (vs Control).

[8] = tested on: rat model of muscle pain disorder caused by carrageenan; experiment: Effect of diclofenac coupled hyaluronic acid in rat model of muscle pain disorder caused by carrageenan, 10 days (Test Example B6); format: in vivo
Experimental: The following were prepared as a test substance in which citric acid buffer is used as a solvent.
as §2, §3, §4

[9] = tested on: rat model of muscle pain disorder caused by carrageenan; experiment: Effect of diclofenac coupled sodium hyaluronates in rat model of muscle pain disorder caused by carrageenan, 14 days (Test Example B7); format: in vivo; details: for muscle pressure pain threshold value vs control group: 1% (w/v) i.m. 14 days before carrageenan, measured 3 h after carrageenan, FIG. 10; for duration of analgesic effect: 1% (w/v), intramuscular administration
Experimental: The following were prepared as a test substance in which citric acid buffer is used as a solvent. As an inflammatory agent, 10 mg/mL carrageenan solution was used. […] A rat (Crj: SD line (SPF), male, 7-week old) was fixed dorsally under general anesthesia, and a broad region around the left gastrocnemius muscle was shaved using a shaver.

[10] = tested on: rat model of muscle pain disorder caused by silver nitrate; experiment: Effect of NSAID coupled chondroitin sulfates in rat model of muscle pain induced by silver nitrate (Test Example B3); format: in vivo; details: i.m. 100 μL/site, 1% DF-CS or 5% other conjugates in PBS, 24, 48, 72 h after administration
Experimental: As an inflammatory agent, 0.1 mol/L silver nitrate solution was filtered through a 0.22 μm filter and used. […] Accordingly, a rat model of muscle pain disorder caused by silver nitrate was prepared. […] Furthermore, *** and * represent, in the parametric Tukey test, ***p<0.001 and *p<0.05 (vs Control), respectively. Score 0: Normal Score 1: Mild claudication Score 2: Severe claudication Score 3: Walking on three legs […] The length of move of the weight at which a pain-related behavior like avoidance is shown was read to one decimal place. This operation was repeated three times in total, and the median value was taken as the muscle pressure pain threshold. […] Furthermore, *** and * represent, in the parametric Tukey test, ***p<0.001 and *p<0.05 (vs Control), respectively.

[11] = tested on: rat model of muscle pain disorder caused by carrageenan; experiment: Effect of diclofenac coupled chondroitin sulfate in rat model of muscle pain disorder caused by carrageenan, 7 days (Test Example B8); format: in vivo
Experimental: The followings were prepared as a test substance in which PBS is used as a solvent.
as §2
A rat (Crj: SD line (SPF), male, 9-week old) was fixed dorsally under general anesthesia, and a broad region around the left gastrocnemius muscle was shaved using a shaver. The area for injection was sprayed with 70% alcohol for sterilization, and by using an injection tube applied with needle for subcutaneous insulin administration (MYJECTOR (registered trade mark), TERUMO CORPORATION), the test solution was injected (volume of 100 μL/site) for intramuscular administration into the left gastrocnemius muscle of a rat.
7 Days after administering the test substance, each group was administered with 10 mg/mL carrageenan solution. As for the administration method, like the test substance, under inhalation of isoflurane, the region around the gastrocnemius muscle was sprayed with 70% alcohol for sterilization, and by using an injection tube applied with 29 G needle for subcutaneous insulin administration, it was injected (volume of 100 μL/site) for intramuscular administration into the left gastrocnemius muscle of a rat. […]

[12] = Release test for conjugates obtained from Examples 15 to 17 (Test Example A4); format: physicochemical; details: 0.1% in 20 mM sodium phosphate buffer pH 7.0, 36°C
From the text: as §1

[13] = 1% in sodium citrate buffer pH 5.1, 40°C, after 4 weeks
[14] = 1% in sodium citrate buffer pH 5.1, immediately after dissolution
[15] = 1% (w/v), intramuscular administration

## diclofenac (4-amino-3-hydroxybutyric acid ethyl ester)-hyaluronic acid [Example A6-4]
[1]; day 0
  diclofenac dissociation ratio: 0.2%
[1]; day 1
  diclofenac dissociation ratio: 1.7%
[1]; day 2
  diclofenac dissociation ratio: 3.2%
[1]; day 4
  diclofenac dissociation ratio: 6.2%
[1]; day 8
  diclofenac dissociation ratio: 13.0%

## diclofenac (2-amino-1-cyclohexylethan-1-ol)-chondroitin sulfate [Example A5-3]
[2]; day 0
  diclofenac dissociation ratio: 0.0%
[2]; day 1
  diclofenac dissociation ratio: 0.1%
[2]; day 2
  diclofenac dissociation ratio: 0.1%
[2]; day 4
  diclofenac dissociation ratio: 0.2%
[2]; day 8
  diclofenac dissociation ratio: 0.4%

## Diclofenac(threonine ethyl ester)-hyaluronic acid
[3]; [13]
  Content of dissociated diclofenac (w/w %): 0.19 w/w %
[3]; [14]
  Content of dissociated diclofenac (w/w %): 0.00 w/w %

## C[C@H]1C[C@H]2[C@@H]3CCC4=CC(=O)C=C[C@]4(C)[C@@]3(F)[C@@H](O)C[C@]2(C)[C@@]1(O)C(=O)CO [Betamethasone]
[4]
  AUC0-t: 21371 ng·h/g
  AUC0-∞: 21797 ng·h/g

## diclofenac (1-amino-2-propanol)-chondroitin sulfate [Example A4-1]
[5]; 1% (w/v) i.m. 10 days before carrageenan, FIG. 12
  muscle pressure pain threshold value vs control group: increased in a significant sense
[5]; [15]
  duration of analgesic effect: 10 days

## diclofenac (1-amino-3,3-dimethylbutan-2-ol)-hyaluronic acid [Example A6-1]
[1]; day 0
  diclofenac dissociation ratio: 0.0%
[1]; day 1
  diclofenac dissociation ratio: 0.1%
[1]; day 2
  diclofenac dissociation ratio: 0.2%
[1]; day 4
  diclofenac dissociation ratio: 0.4%
[1]; day 8
  diclofenac dissociation ratio: 0.8%

## diclofenac-(2-aminoethanol)-hyaluronic acid
[6]; 1% in sodium citrate buffer pH 5.1, 25°C, 0 y (year)
  diclofenac dissociation ratio: 1.3%
[6]; 1% in sodium citrate buffer pH 5.1, 25°C, 0.5 y (year)
  diclofenac dissociation ratio: 6.2%
[6]; 1% in sodium citrate buffer pH 5.1, 25°C, 1 y (year)
  diclofenac dissociation ratio: 10.9%
[6]; 1% in sodium citrate buffer pH 5.1, 40°C, 0 m (month)
  diclofenac dissociation ratio: 1.3%
[6]; 1% in sodium citrate buffer pH 5.1, 40°C, 4 m (month)
  diclofenac dissociation ratio: 13.5%
[6]; 1% in sodium citrate buffer pH 5.1, 40°C, 6 m (month)
  diclofenac dissociation ratio: 18.2%
[6]; 1% in sodium citrate buffer pH 5.1, 40°C, 9 m (month)
  diclofenac dissociation ratio: 23.7%
[6]; 1% in sodium citrate buffer pH 5.1, 40°C, 12 m (month)
  diclofenac dissociation ratio: 28.2%
[6]; 1% in sodium citrate buffer pH 5.1, 60°C, day 0
  diclofenac dissociation ratio: 1.3%
[6]; 1% in sodium citrate buffer pH 5.1, 60°C, day 7
  diclofenac dissociation ratio: 8.1%
[6]; 1% in sodium citrate buffer pH 5.1, 60°C, day 14
  diclofenac dissociation ratio: 12.7%
[6]; 1% in sodium citrate buffer pH 5.1, 60°C, day 21
  diclofenac dissociation ratio: 16.4%
[7]
  duration of analgesic effect: 3 days
  pain score vs control group: improved in a significant sense
  muscle pressure pain threshold value vs control group: increased in a significant sense
[8]; 1% (w/v) i.m. 10 days before carrageenan, measured 3 h after carrageenan, FIG. 9
  muscle pressure pain threshold value vs control group: increased in a significant sense
[8]; [15]
  duration of analgesic effect: 10 days
[9]
  muscle pressure pain threshold value vs control group: not increased
  duration of analgesic effect: less than 14 days

## diclofenac (2-amino-1-cyclohexylethan-1-ol)-hyaluronic acid [Example A6-3]
[1]; day 0
  diclofenac dissociation ratio: 0.0%
[1]; day 1
  diclofenac dissociation ratio: 0.2%
[1]; day 2
  diclofenac dissociation ratio: 0.4%
[1]; day 4
  diclofenac dissociation ratio: 0.7%
[1]; day 8
  diclofenac dissociation ratio: 1.6%

## diclofenac (4-amino-3-hydroxybutyric acid ethyl ester)-chondroitin sulfate [Example A5-4]
[2]; day 0
  diclofenac dissociation ratio: 0.1%
[2]; day 1
  diclofenac dissociation ratio: 0.4%
[2]; day 2
  diclofenac dissociation ratio: 0.9%
[2]; day 4
  diclofenac dissociation ratio: 1.7%
[2]; day 8
  diclofenac dissociation ratio: 3.3%

## Diclofenac(1-amino-2-propanol)-hyaluronic acid
[7]
  duration of analgesic effect: 3 days
  pain score vs control group: improved in a significant sense
  muscle pressure pain threshold value vs control group: increased in a significant sense
[9]
  muscle pressure pain threshold value vs control group: increased in a significant sense
  duration of analgesic effect: 14 days

## diclofenac-(2-aminoethanol)-chondroitin sulfate [DF-CS]
[10]; FIG. 3
  pain score vs control group: improved in a significant sense
[10]; FIG. 4
  muscle pressure pain threshold value vs control group: increased in a significant sense
[11]; 1% (w/v) i.m. 7 days before carrageenan, measured 3 h after carrageenan, FIG. 11
  muscle pressure pain threshold value vs control group: increased in a significant sense
[11]; [15]
  duration of analgesic effect: 7 days

## diclofenac (threonine ethyl ester)-chondroitin sulfate [Example A4-3]
[12]; day 0
  diclofenac dissociation ratio: 0.1%
[12]; day 1
  diclofenac dissociation ratio: 2.0%
[12]; day 2
  diclofenac dissociation ratio: 4.0%
[12]; day 4
  diclofenac dissociation ratio: 7.2%
[12]; day 8
  diclofenac dissociation ratio: 10.5%

## diclofenac (1-amino-3,3-dimethylbutan-2-ol)-chondroitin sulfate [Example A5-1]
[2]; day 0
  diclofenac dissociation ratio: 0.0%
[2]; day 1
  diclofenac dissociation ratio: 0.0%
[2]; day 2
  diclofenac dissociation ratio: 0.1%
[2]; day 4
  diclofenac dissociation ratio: 0.1%
[2]; day 8
  diclofenac dissociation ratio: 0.2%

## diclofenac (serine ethyl ester)-chondroitin sulfate [Example A4-2]
[12]; day 0
  diclofenac dissociation ratio: 0.0%
[12]; day 1
  diclofenac dissociation ratio: 10.9%
[12]; day 2
  diclofenac dissociation ratio: 16.9%
[12]; day 4
  diclofenac dissociation ratio: 31.9%
[12]; day 8
  diclofenac dissociation ratio: 42.2%

## Diclofenac(serine ethyl ester)-hyaluronic acid
[3]; [13]
  Content of dissociated diclofenac (w/w %): 0.72 w/w %
[3]; [14]
  Content of dissociated diclofenac (w/w %): 0.05 w/w %
